From publication PMC2878485 (Structure (London, England : 1993), 2008)
Residue numbers refer to the chain shown, from its start.

T1: UL44ΔC290 (wild-type; N-terminal 290 residues of human cytomegalovirus UL44) (human cytomegalovirus, UniProt P16790 1-290)
T1 sequence (looked up): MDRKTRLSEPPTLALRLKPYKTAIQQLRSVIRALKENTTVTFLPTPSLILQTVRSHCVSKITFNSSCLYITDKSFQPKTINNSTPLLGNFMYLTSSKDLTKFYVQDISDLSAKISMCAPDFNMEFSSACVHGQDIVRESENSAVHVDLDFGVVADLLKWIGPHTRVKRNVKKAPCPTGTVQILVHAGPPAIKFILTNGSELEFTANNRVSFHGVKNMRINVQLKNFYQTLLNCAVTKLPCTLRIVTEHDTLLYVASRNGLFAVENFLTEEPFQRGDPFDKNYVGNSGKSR

T2: UL44ΔC290 K35A/K158A/K224A/K237A (human cytomegalovirus, UniProt P16790 1-290, K35A | K158A | K224A | K237A)
T2 sequence (looked up): T1 sequence (looked up) with K35A, K158A, K224A, K237A

T3: UL44ΔC290 R165A/K167A/R168A/K171A/K172A (human cytomegalovirus, UniProt P16790 1-290, R165A | K167A | R168A | K171A | K172A)
T3 sequence (looked up): T1 sequence (looked up) with R165A, K167A, R168A, K171A, K172A

B1: 18 bp thiol-tethered DNA (dsDNA)
DNA 1: TACCGCAGCCATCAGAGT
DNA 2: ACTCTGATGGCTGCGGTA
modifications: single thiol tether on backbone phosphate between bases 11 and 12 of strand 1

Key:
[1] = biological target: T1, UL44ΔC290 (wild-type; N-terminal 290 …); assay: ITC
[2] = biological target: T2, UL44ΔC290 K35A/K158A/K224A/K237A; assay: ITC
[3] = biological target: T3, UL44ΔC290 R165A/K167A/R168A/K171A/K172A; assay: ITC
[4] = biological target: UL44ΔC290 wild-type (Human cytomegalovirus, UniProt P16790 1-290); assay: disulfide crosslinking, nonreducing PAGE

Row | Binder | binding result [1] | binding result [2] | binding result [3] | binding result [4]
1 | LPRRLHLEPAFLPYSVKAHECC (peptide, UniProt P08546 1221-1242, looked up) [peptide corresponding to the C-terminal 22 residues of UL54] | binds | binds | binds | –
2 | B1 | – | – | – | binds
